B1: KAT8 regulatory NSL complex subunit 2, residues 28 to 91; numbered along this chain, Q9H9L4 (parent)
chain: CAFTHRPCSHPRLEGQEFCIKHILEDKNAPFKQCSYISTKNGKRCPNAAPKPEKKDGVSFCAEH

In the Human Domainome abundance scans (Beltran et al. 2025) one finds abundance fitness data, which are given here for 42 variants.

± gives the uncertainty stated by the source.

This data set covers variants of B1. In words: abundance fitness (aPCA) (normalised: wild type 0, dead -1); higher = more abundant; growth selection in yeast, the domain comes from the species named. The following applies: Homo sapiens.
In the case of CAFTHRPCSHPRLEGQEFCLKHILEDKNAPFKQCSYISTKNGKRCPNAAPKPEKKDGVSFCAEH [I20L], the abundance fitness was -0.057 ± 0.042. CAFTHRPCSHPRLEGQEFCPKHILEDKNAPFKQCSYISTKNGKRCPNAAPKPEKKDGVSFCAEH [I20P]: the abundance fitness is -0.184 ± 0.072. Take CAFTHRPCSHPRLEGQEFCIKHILEDKNAPFKQCSYISTKYGKRCPNAAPKPEKKDGVSFCAEH [N41Y]: the abundance fitness is -0.365 ± 0.13. In the case of CAFTHRPCSHPRLEGQEFCIKHILEDKNAPFKQCSYISTKPGKRCPNAAPKPEKKDGVSFCAEH [N41P], the abundance fitness was -0.13 ± 0.073. With CAFTHRPCSHPRLEGQEFCIKHILEDKNAPFTQCSYISTKNGKRCPNAAPKPEKKDGVSFCAEH [K32T], the abundance fitness is -0.177 ± 0.069.

With CAFTHRPCSHPRLEGQEFCIVHILEDKNAPFKQCSYISTKNGKRCPNAAPKPEKKDGVSFCAEH [K21V], the abundance fitness was -0.117 ± 0.051. On to CAFTHRPCSHPRLEGQEFCIDHILEDKNAPFKQCSYISTKNGKRCPNAAPKPEKKDGVSFCAEH [K21D], for which the abundance fitness is -0.149 ± 0.13. For the variant CAFTHRPCSHPRLEGQEFCIKHTLEDKNAPFKQCSYISTKNGKRCPNAAPKPEKKDGVSFCAEH [I23T], the abundance fitness is -0.178 ± 0.078. As to CAFTHRPCSHPRLEGQEFCIKHIKEDKNAPFKQCSYISTKNGKRCPNAAPKPEKKDGVSFCAEH [L24K], the abundance fitness is -0.261 ± 0.079.

In the case of CAMTHRPCSHPRLEGQEFCIKHILEDKNAPFKQCSYISTKNGKRCPNAAPKPEKKDGVSFCAEH [F3M], the abundance fitness is -0.172 ± 0.085. As for CAPTHRPCSHPRLEGQEFCIKHILEDKNAPFKQCSYISTKNGKRCPNAAPKPEKKDGVSFCAEH [F3P], the abundance fitness is -0.639 ± 0.074. For the variant CAFTHRPCSHPRLEGQEFCIKHILEDKNAPFKQCSYISTKNGKRCPNAADKPEKKDGVSFCAEH [P50D], the abundance fitness is -0.302 ± 0.098.

In the case of CAFTHRPCSHPRLEGQEFCIKHILETKNAPFKQCSYISTKNGKRCPNAAPKPEKKDGVSFCAEH [D26T], the abundance fitness is -0.069 ± 0.083.

Regarding CAFTHRPCSHPRLEGQEFCIKHILEWKNAPFKQCSYISTKNGKRCPNAAPKPEKKDGVSFCAEH [D26W], the abundance fitness is -0.347 ± 0.067. On to CAFTHRPCSHPRLEGQEFCIKHILEDKNAPFKQCSYISTKNGKRLPNAAPKPEKKDGVSFCAEH [C45L], for which the abundance fitness is -0.441 ± 0.046. Regarding CAFTHRPCSHPRLEGQEFCIKHILEDKNAPFKQASYISTKNGKRCPNAAPKPEKKDGVSFCAEH [C34A], the abundance fitness was -0.446 ± 0.096.

Consider CAFTHRPCSHPRLEGQEFCIKHILEDKNAPFKQMSYISTKNGKRCPNAAPKPEKKDGVSFCAEH [C34M], for which the abundance fitness is -0.542 ± 0.089. Turning to CAFTHRPCSHPRLEGQEFCIKHILEDKNAPFKQCSYIQTKNGKRCPNAAPKPEKKDGVSFCAEH [S38Q], the abundance fitness is -0.08 ± 0.08. Consider CAFTHRPCSHPRLEGQEFCIKHILEDKNAPFKQCSYIITKNGKRCPNAAPKPEKKDGVSFCAEH [S38I], for which the abundance fitness was -0.348 ± 0.15.

For CAFTHRPCSHPRLEGQEFCIKHILEDKNAPFKQCSYIKTKNGKRCPNAAPKPEKKDGVSFCAEH [S38K], the abundance fitness is -0.084 ± 0.11. Regarding CAFTHRPCSHPRLEGQEFCIKHILEDKNAPFKQCSYIYTKNGKRCPNAAPKPEKKDGVSFCAEH [S38Y], the abundance fitness was -0.065 ± 0.1. The result for CAFTHRPCSHPRLEGQEFCIKHILEDKNAPFKQCSYISTKNGKRCPNCAPKPEKKDGVSFCAEH [A48C] reads -0.078 ± 0.092. CAFTHRPCSHPRLEGQEFCIKHILEDKNAPFKQCSYISTKNGKRCPNIAPKPEKKDGVSFCAEH [A48I]: the abundance fitness was -0.204 ± 0.065. Turning to CAFTHRPCSHPRLEGQEFCIKHILEDKNAPFKQCSYISTKNIKRCPNAAPKPEKKDGVSFCAEH [G42I], the abundance fitness is -0.206 ± 0.097. Take CAFTHRPCSHPRLEGQEFCIKHILEDKNAPFKQCSYISTKNPKRCPNAAPKPEKKDGVSFCAEH [G42P]: the abundance fitness was -0.1 ± 0.07. The result for CAFTHRPCSHPRLEGQEFCIKHILEDKNAPFKQCSYISTKNGKTCPNAAPKPEKKDGVSFCAEH [R44T] reads -0.029 ± 0.077; that for CAFTHRPCSHPRLEGQEFCIKHILEDKNAPFKQCSYISTKNGKPCPNAAPKPEKKDGVSFCAEH [R44P], -0.067 ± 0.058. The result for CWFTHRPCSHPRLEGQEFCIKHILEDKNAPFKQCSYISTKNGKRCPNAAPKPEKKDGVSFCAEH [A2W] reads -0.541 ± 0.059; that for CKFTHRPCSHPRLEGQEFCIKHILEDKNAPFKQCSYISTKNGKRCPNAAPKPEKKDGVSFCAEH [A2K], -0.153 ± 0.14.

CTFTHRPCSHPRLEGQEFCIKHILEDKNAPFKQCSYISTKNGKRCPNAAPKPEKKDGVSFCAEH [A2T]: the abundance fitness is -0.103 ± 0.056. For the variant CCFTHRPCSHPRLEGQEFCIKHILEDKNAPFKQCSYISTKNGKRCPNAAPKPEKKDGVSFCAEH [A2C], the abundance fitness was -0.08 ± 0.093. For the variant CHFTHRPCSHPRLEGQEFCIKHILEDKNAPFKQCSYISTKNGKRCPNAAPKPEKKDGVSFCAEH [A2H], the abundance fitness is -0.231 ± 0.1. Then CAFTHRPCSHPRLEGQEICIKHILEDKNAPFKQCSYISTKNGKRCPNAAPKPEKKDGVSFCAEH [F18I], with -0.678 ± 0.065; and CAFTHRPCSHPRLEGPEFCIKHILEDKNAPFKQCSYISTKNGKRCPNAAPKPEKKDGVSFCAEH [Q16P], with -1.11 ± 0.11.

As for CAFTHRPCSHPRLEGEEFCIKHILEDKNAPFKQCSYISTKNGKRCPNAAPKPEKKDGVSFCAEH [Q16E], the abundance fitness was -0.261 ± 0.078.

For the variant CAFTHRPCSHPRLEGQLFCIKHILEDKNAPFKQCSYISTKNGKRCPNAAPKPEKKDGVSFCAEH [E17L], the abundance fitness was -0.116 ± 0.046. With CAFTHRPCSHPRLEGQEFCIKIILEDKNAPFKQCSYISTKNGKRCPNAAPKPEKKDGVSFCAEH [H22I], the abundance fitness is -1.41 ± 0.15.

For CAFTHRPCSHPRLEGQEFYIKHILEDKNAPFKQCSYISTKNGKRCPNAAPKPEKKDGVSFCAEH [C19Y], the abundance fitness was -1.38 ± 0.21. With CAFTHRPCSHPRLEGQEFSIKHILEDKNAPFKQCSYISTKNGKRCPNAAPKPEKKDGVSFCAEH [C19S], the abundance fitness was -0.851 ± 0.067. Then CAFTHRPCSHPRLEGQEFQIKHILEDKNAPFKQCSYISTKNGKRCPNAAPKPEKKDGVSFCAEH [C19Q], with -0.878 ± 0.08; and CAFTHRPCSHPRLEGQEFCIKHILEDKNAPFKQCSRISTKNGKRCPNAAPKPEKKDGVSFCAEH [Y36R], with -0.055 ± 0.058.

Turning to CAFTHKPCSHPRLEGQEFCIKHILEDKNAPFKQCSYISTKNGKRCPNAAPKPEKKDGVSFCAEH [R6K], the abundance fitness is -0.032 ± 0.11.
